Laboratory results: the DeepSol protein solubility set

Test: soluble on expression in E. coli; label from the status in PepcDB or PDB records
With “MIDTHIHSDTRGLEDLELMAMCLDGVITLAHDPFEMKNIKVWEAHVEKLLINELERAKKVGLNLFICVGMHPRAIPPEIDEALDKIKSYINYNSRVVGIGEIGLEKATKEEKEVFIKQLLLAEELNMPAVVHTPRRNKEEVTKIILDEISTLNLKNRDIVIEHCNKETTKWVLDEEFYVGLTIQPGKLTPLEAVEIVKEYKDFADKILLNSDCSSNASDVLAVPRTVLKMKINGIEKDVIYKVAHKNAVNLFGLDI” the “soluble on expression in E. coli” value was “not soluble”. With “MIDWDDLECRVAREESRHQAGIGTCSLALQIGFFFDGLKRNINVDEESQRLTNVGRLFRAHSFEIKASLTSAYSSAKIYVPGLGTLLDDTPSERLDSILDARQQALPEDYADALVEQGKETAVDTVKGVFKEDWSQVLSNKLGDLVTMKSGFDATVSAAKKAATRALLEATEPIRDNPIVAELLMTGVDARVDLAKNKFKESIVLSKKENQLPIKLVQISVFGADLGAALARRFIDELLESVCTKVGNEYRYEDSKVEVIFAGLFDCTRRSSMDMGDTVATISDGAGLVARHPVVGLITTAFGAKVITFDKPLHPAVKKALHLIAAHERREYRPLLPLGPLRSGWREVLCPGISEDVTGGLLPDEQRPSAELCRVPLRQMYETARRAQVPFPNFSILDAKNPRVAQYFIMQDSRLGYSAKKYSEYYSKWVGKMNPTPEAFELHMIHYCFWLGEKLHDYKILRQNVSGSERDKLNAQWGWLIQVGRDAENVLRSRGLSRQMYRGADLVKFFNGIKRVPREADIFFNYFMHDFTSEELKFATLNEQANTMLRNNNFFVPRGIEILAVDDEAAALEHHHHHH” the “soluble on expression in E. coli” value was “soluble”. With “MIEENLKQKIHDKFVAAKKNGHLKVTHAESKKLKDPQTTTQYWVTFAPSLALKPDANKNSDSKAEDPFANPDEELVVTEDLNGDGEYKLLLNKFPVVPEHSLLVTSEFKDQRSALTPSDLMTAYNVLCSLQGDKDDDVTCERYLVFYNCGPHSGSSQDHKHLQIMQMPEKFIPFQDVLCNGKDHFLPTFNAEPLQDDKVSFAHFVLPLPESSDQVDEDLLAMCYVSLMQRALTFFQDWTNESPELTKSYNVLLTKKWICVVPRSHAKSGPPLMLNINSTGYCGMILVKDREKLENLTEDPHLVDKSLLQCGFPNTAGQKPTEYHY” the “soluble on expression in E. coli” value was “not soluble”. With “MIEFKNVSKHFGPTQVLHNIDLNIRQGEVVVIIGPSGSGKSTLLRCINKLEEITSGDLIVDGLKVNDPKVDERLIRQEAGMVFQQFYLFPHLTALENVMFGPLRVRGVKKEEAEKQAKALLAKVGLAERAHHYPSELSGGQQQRVAIARALAVKPKMMLFDEPTSALDPELRHEVLKVMQDLAEEGMTMVIVTHEIGFAEKVASRLIFIDKGRIAEDGSPQALIENPPSPRLQEFLQHVS” the “soluble on expression in E. coli” value was “not soluble”. For “MIEGKTLVVNPFIGGSAKNITDEQYISILKKIKEKMPDLNIIITSYTTDEERTEKLCKDIGKDKIFAFSNGASILNTASIIDRADVYFGASTGPTHIAGALGKKIVAIYPHKKTQSPTRWGVLGNSNVRYIIPDENNPNEDYKNPYLEHHHHHH”, the “soluble on expression in E. coli” value was “not soluble”. With “MIELTITNATITAGDTPLLTNASLHVGSGECVALMGESGSGKTTLAQAILGYLAPGCRWCSGSIDVDGLNPLQLAPRSLRELRKRCAYVDQDPGAALPPGHSVRSIVRSRASLSDAQMLSIFGDFGLGDIDR” the “soluble on expression in E. coli” value was “not soluble”. For “MIERSLNATEKAIESIREGELVRRHTDLELRDMQISMNEDFDRIRGMMHELDEQIHKDRSGNSKWMNQKMEKAKATADQALASTLMVKDVQLLEKKVNILKESVVQVNKSFYKYEKDVDMNDLMDQVIDMVHRTEKKEQDALEAHATDEQAIGKAFRGAIEGLYGLKSSNSKVMEEAKLLAGEMRVFRDAASNKNFHTMISRIASNTATSGVPLKYSSGPESSFSTSAYTSFSKSANNSSMSGSN”, the “soluble on expression in E. coli” value was “not soluble”. For “MIESKTYAVLGLGNGGHAFAAYLALKGQSVLAWDIDAQRIKEIQDRGAIIAEGPGLAGTAHPDLLTSDIGLAVKDADVILIVVPAIHHASIAANIASYISEGQLIILNPGATGGALEFRKILRENGAPEVTIGETSSMLFTCRSERPGQVTVNAIKGAMDFACLPAAKAGWALEQIGSVLPQYVAVENVLHTSLTNVNAVMHPLPTLLNAARCESGTPFQYYLEGITPSVGSLAEKVDAERIAIAKAFDLNVPSVCEWYKESYGQSPATIYEAVQGNPAYRGIAGPINLNTRYFFEDVSTGLVPLSELGRAVNVPTPLIDAVLDLISSLIDTDFRKEGRTLEKLGLSGLTAAGIRSAVE”, the “soluble on expression in E. coli” value was “soluble”. With “MIFMHPKTLEILKMFEEINKIPRRSKNEEKLALWLMEWAKNHNFEAKTDALNNVLIKVPPTPGYENSPAIVLQGHMDMVCEKCRDSGHDFSKDPIICIYEGDWLRGDGTSIGADNGIALAIGLVLAESGIKGEIEHPPLELLFTVDEETGLTGASGLEEDFFEGRILLNLDSEDEGIFILGCAGGQNSRIFLPLQWESFDYGKGSGFGLFRISAEGLEGGHSGVEIHRQRANGIQLLARMLSALKEKVGKENLRLVFFSGGSVHNAIPNYAEAFIVLSRNNEKQAEDFVSGLQKSFRGEYAVSDPEITLQLKEVENGIIFEASGGKITRKEVPSDRVFSVETEEKLYGVLLGMPHGVHRVSDTIPGLVETSNNLATVRTGEKEVRIVSSQRSSVMSRLAEVTEKVETVAKLAGARVEHECGYPAWEPDLQSGLLMKCRHAYSGTFGKEPEIKVVHAGLECGVIGSKCECIEMISFGPTIKDPHSPAERVYIPSIEKVWVFLENLMKSYRLEHHHHHH” the “soluble on expression in E. coli” value was “soluble”. With “MIFNVRGENLEVTPALREYVEKKVGKLERYFDTTPVADVNVRMQVLNNLHIIEVTIPMSRLLLRAEEKHSDMYAAIDLVIEKLERQIRKHKTKVNRKFRQEGSLKYMFKNDLEPMDGMREEILLEEEDDLQVVRKKRFNLKPMDTEEAILQMDMLGHNFFVFSNAISGDTNVVYRRKDGKYGLIEPELEHHHHHH” the “soluble on expression in E. coli” value was “soluble”. In the case of “MIFYFSGTGNSKWIAEQIAKAQNEVLVFMPNAIRDGIEEFVLADDEKVGFVFPVYSWGPPLSVLRFLDWITLSNYHSQYVFFVCSCGDDTGLTEELFRRALSRKGMECNAGFSVAMPNNYVLLPGFDVDKKELEKKKLDEAVGRVEEINDSITGKKIGFHCNEGSFPWFKTKVLNPLFNRFMTSAKPFYATDDCIGCKRCERICPVGNVVMIGWRPVWGMDCTSCLACYHVCPKHAVQYGRRTKRKGQYLNPNVSISHEAAAQLEHHHHHH”, the “soluble on expression in E. coli” value is reported as “not soluble”. In the case of “MIFYFSGTGNSKWIANQLSKEQQEDLFFIPDAWKNDTWEFSLREDEKIGFVFPVYSWAPPVIVQEFIRKLVLKGYQQQYLFFVCSCGDDTGLTRQVMEKALAARGWRCNAGFSVIMPNNYVLFLGFDVDSKELEKKKLAEAVPALEKVSRLITGRETVFACKEGSLPFIKTRIINPLFVRYQMSPKPFHATSECIGCKRCEKSCPVGNITMKERRPVWGKNCTACLACYHVCPQHAVQYGKKTKGKGHYFNPDSAYLEHHHHHH”, the “soluble on expression in E. coli” value is reported as “soluble”. With “MIGLITTLYFVAKTAFIKLKVAVYKDKAKGSGNKNTIVIYSEGKRYWNVFLPICNEFEEHQKELVFYTSSEDDPVFEQHYTYVKPEYIGKGNKAFARLNMLEADICLMTTPGLDVYQLKRSKHVRHYSHILHALDDATSYRLFGLDYFDSVLLSGEYQVKGIRELESLRNLPPKNLRVVGCPYLDVLSEKIKNLPEKSSDFTVLIAPSWGASGILSKYGEQLITPLVETGWNIIIRPHPQSKTSEPDMLKRLEGKYKDVANFVWDYNSENIDSLSKADIMISDFSSVIFDYCFLFDKPFLYCNNEFDHRPYDSGDLKETPWKFSVLKEIGVELNSNSFDHIKEIISEACKSETLKENRLKAKDTAWQNRGCAGKAVYDFLTEIKTI” the “soluble on expression in E. coli” value was “not soluble”. In the case of “MIGNLKLKRFEEVNLVLSGGAAKGIAHIGVLKALEELGIKVKRLSGVSAGAIVSVFYASGYTPDEMLKLLKEVNWLKLFKFKTPKMGLMGWEKAAEFLEKELGVKRLEDLNIPTYLCSADLYTGKALYFGRGDLIPVLLGSCSIPGIFEPVEYENFLLVDGGIVNNLPVEPLEKFKEPIIGVDVLPITQERKIKNILHILIRSFFLAVRSNSEKRKEFCNVVIEPPLEEFSPLDVNKADEIFLRGYESTLRIMRNFVKHLEHHHHHH”, the “soluble on expression in E. coli” value is reported as “not soluble”. In the case of “MIGRKEKERERPYYRDPDDPEYIKDLQRPAVIKEDLSEMERRKRVQQILESKSFCHELEEVIRQECDTARTDPDHLQVLQKLSDLTVPQGNMSFGNLHTYGGNTIAIADLRGNEKYSKAERIQRNKLACLFRLADLFQWSQGIHNEISYRTNDEDNTFLMNPFGLLYHEITAATIVKIDENGKILDCGTLKAGVNQPAFLLHSAIYKAHPMVRCILHMHTAIVAAVASMKCGLLPLCKEAMVLGPVGYHDYQDIGDDDIQFDEIIANLGDKNVLFLRNQGFLVVGDTIEHATFLANNTVIACETQVRAARAGLDNLIIPEEKAIQRAFRNSRNTNSLKRNGTVDWRVGELEWESWMRVLDHANFQTGHVYRQPQLRPKSAMSTSMVNNNDVAVPPTTSAYGQIDETNLESVSAHRLALLRKEQERVRWMNSPNAYQKVEFLEYGADNPKKITKWVHDVNVPSASGTPVKISSVHQFSPASSNPKEFKEKQKAIKENNRLGTLSAGPQSQILDSVTYEDIALLIKPDNDGTVGQSSTADRAILIGTASKGIIDRQFQHHAQVYHQIYAPNPFSVETDADIKKYVDMVKAKNSQSAPVSARSGYSQYDEVEADTVSLMQGVREHKLSQAALSASDDGLNAGISPNNVRTSEESVNTSYMSQSVVFDYPDILRPIYRQETYV”, the “soluble on expression in E. coli” value is reported as “not soluble”. For “MIGRRHPYYPYLEAALEAASLARGIHLYYLEKGFTEGTKSGPTDLVTQADREAEEAVKGLLLSRFPEAGFLGEEGGSEGGKALRFIVDPLDGTVNYAHGFPFFAVSIALEAESAIQMGVVMDTARGEVFYALRGEGAYLNGRPIRVTGRESLVGSLLATGFPYDVAKDPENLTYFERALRKGLLVRRPGAAALDLAYVAAGRLEGFWEVKLNPWDVAAGWLLVEEAGGRVTDLEGNPYRLGSRYILATNGRVHEALRRTLLGLD”, the “soluble on expression in E. coli” value was “soluble”. With “MIGVTSCISGDGKSFCSHNLARIYAISGKKTLLIRGDMRKAFNAPANLIPQGSMGLSQHLIGMATIDQIIHKGEIENLYQIIPGPVPPNASELVASQKMEEFIRIMKDKFEVVIMDSPPVGLVSDYMSVIKHIDANLYIVRYDYTPKETLEAIKDLKNKYPAQSHSIIFN” the “soluble on expression in E. coli” value was “not soluble”. With “MIHRPTAKENAKRFASVIQALHACETACAYCATECGKNGHAEAMGRCVSLCTDCARFCALARDFLERNSEFAELLLEDCAEICQQTMEECVHHAEGHCRKCAEACEQCKKACLEVAGAAPLSSAQQKELLAALLEHHHHHH” the “soluble on expression in E. coli” value was “not soluble”. For “MIIEHNGNIHKIARMTGNKNNFLEIILSDIHENIKIKPLTIKVKGENVINILPEEVSFYVKQGVDLIYEKYKRKFFISEISFCQSDSRPSSIYAFLTFHLLEDIIKNESPSNYT”, the “soluble on expression in E. coli” value was “not soluble”. With “MIIMEKGVVSDSYEVAIARNPHLAEYLSKYRNETGRSPSFLVNIDSSLKSLAHVDVIYPVGDPIFIHIYERGKERRYKPIEPLLKDDEFEFMDAILDIIMSRASDYPPAENEEEQEKNIEDVYKKTVSVGSNKIKRNSVTLEKPLYDKMLYNVKKEIIGLGPLEPLIRDSHIEDISGIGPEDVYIVHKIFGSMPTDITFGSMERLMRFSKRLSERVGRPVSDKRPIVDATLPDGSRLSIVYSTDISQRGPSFTIRKFSEIPLSILNLIKYNTMSYEEAAYLWLALEYGQSVFVCGETASGKTTVVNAIIPFIRPESKIFSAEDTPEIRAPQKAWQQLVTRESGAEESRVTLYDLLRTALRSRPNYIIVGEIRGAEGAMAFQAMQTGHPVISTFHASSVKKMIQRFTGNPINIPVTFMDNLNIVLIQQAVYVGGKFLRRTTSINEIEGYYEDLGGVATRAVFEWDPSTDRHMFRGMNNSYILEEKIAKTAGLVDTSLIYNELFRRARILKDLADQKILDYYQVYEKIKEFYEGALANGY” the “soluble on expression in E. coli” value was “not soluble”.
